Residue numbers refer to the chain shown, from its start. Numbers in names are those of the source. Where two headings read alike, the source gives them in different places.
B1: W8Y B: tsGBP2.13C.W8Y (SEQ ID NO: 39) Badan conjugate (conjugate)
chain: MKLEIFSYWAGDCGPALEALIRLYKQKYPGVEVINATVTGGAGVNAKAVLKTRMLGGDPPDTFQVHAGQELIGTWVVADRMEDLTSLFRQEGWLQAFPKGLIDLLSYKGGIWSVPVNIHRSNVMWYIPAKLKEWGVTPPKTWAEFLATAQTLKRKGLEAPLALGENWTQQHLWESVALATLGADGWNNLWSGKLKFTDPKAVAVWETFGKVLDAANKDAAGLSWQQAVDRVVQGKAAFNIMGDWAAGYMSTTLKLKPGTDFAWTPSPGTSGIFMMLSDSFGLPKGAKNRQNAINWLKLVGSKEGQDTFNPLKGSIAARLDSDPAKYNAYGQSAMKDWKSNRIVGSLVHGAVAPESFMSQFGTVMEIFLQSRNPQAAANAAQAIANQVGLGRGGSHHHHHH
modifications: Badan conjugate; tsGBP2.13C.W8Y (13C, 8Y double substitution mutant with signal peptide replaced with M and a GGSHHHHHH at C-terminus)
B2: W9F B: tsGBP2.13C.W9F (SEQ ID NO: 40) Badan conjugate (conjugate)
chain: B1 chain with Y8W, W9F
modifications: Badan conjugate; tsGBP2.13C.W9F (13C 9F double substitution mutant with signal peptide replaced with M and a GGSHHHHHH at C-terminus)
B3: D278N A: tsGBP2.13C.D278N (SEQ ID NO: 50) Acrylodan conjugate (conjugate)
chain: B1 chain with Y8W, D278N
modifications: Acrylodan conjugate; tsGBP2.13C.D278N (13C, 278N double substitution mutant with signal peptide replaced with M and a GGSHHHHHH at C-terminus)
B4: D278S A: tsGBP2.13C.D278S (SEQ ID NO: 51) Acrylodan conjugate (conjugate)
chain: B1 chain with Y8W, D278S
modifications: Acrylodan conjugate; tsGBP2.13C.D278S (13C, 278S double substitution mutant with signal peptide replaced with M and a GGSHHHHHH at C-terminus)
B5: Q64M A: tsGBP2.13C.Q64M (SEQ ID NO: 45) Acrylodan conjugate (conjugate)
chain: B1 chain with Y8W, Q64M
modifications: Acrylodan conjugate; tsGBP2.13C.Q64M (13C, 64M double substitution mutant with signal peptide replaced with M and a GGSHHHHHH at C-terminus)
B6: Q64M B: tsGBP2.13C.Q64M (SEQ ID NO: 45) Badan conjugate (conjugate)
chain: B1 chain with Y8W, Q64M
modifications: Badan conjugate; tsGBP2.13C.Q64M (13C, 64M double substitution mutant with signal peptide replaced with M and a GGSHHHHHH at C-terminus)
B7: W244M A: tsGBP2.13C.W244M (SEQ ID NO: 47) Acrylodan conjugate (conjugate)
chain: B1 chain with Y8W, W244M
modifications: Acrylodan conjugate; tsGBP2.13C.W244M (13C, 244M double substitution mutant with signal peptide replaced with M and a GGSHHHHHH at C-terminus)
B8: D278L A: tsGBP2.13C.D278L (SEQ ID NO: 52) Acrylodan conjugate (conjugate)
chain: B1 chain with Y8W, D278L
modifications: Acrylodan conjugate; tsGBP2.13C.D278L (13C, 278L double substitution mutant with signal peptide replaced with M and a GGSHHHHHH at C-terminus)
B9: W9F A: tsGBP2.13C.W9F (SEQ ID NO: 40) Acrylodan conjugate (conjugate)
chain: B1 chain with Y8W, W9F
modifications: Acrylodan conjugate; tsGBP2.13C.W9F (13C 9F double substitution mutant with signal peptide replaced with M and a GGSHHHHHH at C-terminus)
B10: W9M B: tsGBP2.13C.W9M (SEQ ID NO: 41) Badan conjugate (conjugate)
chain: B1 chain with Y8W, W9M
modifications: Badan conjugate; tsGBP2.13C.W9M (13C 9M double substitution mutant with signal peptide replaced with M and a GGSHHHHHH at C-terminus)
B11: W9M A: tsGBP2.13C.W9M (SEQ ID NO: 41) Acrylodan conjugate (conjugate)
chain: B1 chain with Y8W, W9M
modifications: Acrylodan conjugate; tsGBP2.13C.W9M (13C 9M double substitution mutant with signal peptide replaced with M and a GGSHHHHHH at C-terminus)
B12: W9Y B: tsGBP2.13C.W9Y (SEQ ID NO: 42) Badan conjugate (conjugate)
chain: B1 chain with Y8W, W9Y
modifications: Badan conjugate; tsGBP2.13C.W9Y (13C, 9Y double substitution mutant with signal peptide replaced with M and a GGSHHHHHH at C-terminus)
B13: D278S B: tsGBP2.13C.D278S (SEQ ID NO: 51) Badan conjugate (conjugate)
chain: B1 chain with Y8W, D278S
modifications: Badan conjugate; tsGBP2.13C.D278S (13C, 278S double substitution mutant with signal peptide replaced with M and a GGSHHHHHH at C-terminus)
B14: W244Y B: tsGBP2.13C.W244Y (SEQ ID NO: 49) Badan conjugate (conjugate)
chain: B1 chain with Y8W, W244Y
modifications: Badan conjugate; tsGBP2.13C.W244Y (13C, 244Y double substitution mutant with signal peptide replaced with M and a GGSHHHHHH at C-terminus)
B15: H66Q A: tsGBP2.13C.H66Q (SEQ ID NO: 46) Acrylodan conjugate (conjugate)
chain: B1 chain with Y8W, H66Q
modifications: Acrylodan conjugate; tsGBP2.13C.H66Q (13C, 66Q double substitution mutant with signal peptide replaced with M and a GGSHHHHHH at C-terminus)
B16: W244Y A: tsGBP2.13C.W244Y (SEQ ID NO: 49) Acrylodan conjugate (conjugate)
chain: B1 chain with Y8W, W244Y
modifications: Acrylodan conjugate; tsGBP2.13C.W244Y (13C, 244Y double substitution mutant with signal peptide replaced with M and a GGSHHHHHH at C-terminus)
B17: D278N B: tsGBP2.13C.D278N (SEQ ID NO: 50) Badan conjugate (conjugate)
chain: B1 chain with Y8W, D278N
modifications: Badan conjugate; tsGBP2.13C.D278N (13C, 278N double substitution mutant with signal peptide replaced with M and a GGSHHHHHH at C-terminus)
B18: H66Q B: tsGBP2.13C.H66Q (SEQ ID NO: 46) Badan conjugate (conjugate)
chain: B1 chain with Y8W, H66Q
modifications: Badan conjugate; tsGBP2.13C.H66Q (13C, 66Q double substitution mutant with signal peptide replaced with M and a GGSHHHHHH at C-terminus)
B19: W244M B: tsGBP2.13C.W244M (SEQ ID NO: 47) Badan conjugate (conjugate)
chain: B1 chain with Y8W, W244M
modifications: Badan conjugate; tsGBP2.13C.W244M (13C, 244M double substitution mutant with signal peptide replaced with M and a GGSHHHHHH at C-terminus)

Test: Ratiometric fluorescence glucose titration of fluorescent conjugates
Assay type: binding
Set-up: key to Shape (fluorescence response to glucose) / Change (fluorescence response to glucose): m, monochromatic; d, dichromatic (i.e. spectral shape change); 0, no change
Settings: tsGBP 13C affinity mutants, Acrylodan or Badan conjugates
How it was run: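 Single-cysteine glucose-binding protein mutants labelled site-specifically with thiol-reactive environmentally sensitive fluorophores; emission spectra recorded during glucose titration to detect ligand-mediated intensity and spectral-shape changes for ratiometric read-out. Temperature- and ligand-dependent fluorescence landscapes acquired in 1K steps; binding fitted to single-site fractional saturation.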

[1] = read-out: Glucose affinity ^appKd
[2] = read-out: Glucose affinity ^trueKd

| Molecule | Change (fluorescence response to glucose) | Kd [1] [mM] | Kd [2] [mM] |
| --- | --- | --- | --- |
| B1 | 0 | – | – |
| B2 | 0 | – | – |
| B3 | – | ~100 | ~100 |
| B4 | m/d | – | – |
| B5 | m/d | – | – |
| B6 | m | – | – |
| B7 | – | ~40 | ~20 |
| B8 | m | – | – |
| B9 | m | – | – |
| B10 | m^c | – | – |
| B11 | m | – | – |
| B12 | m | – | – |
| B13 | m/d | 81 | 91 |
| B14 | – | 4.1 | 3.8 |
| B15 | – | ~20 | ~7 |
| B16 | – | 5.6 | 7.8 |
| B17 | m/d | 99 | – |
| B18 | m | ~0.1 | ~0.09 |
| B19 | – | ~5 | ~7 |
